Assay: soluble on expression in E. coli; label from the status in PepcDB or PDB records

Row | Sequence | soluble on expression in E. coli
1 | MGSDKIHHHHHHMKEVKIGKDKISVALCTYNGEKFIREQLRSIVGQTILPWQIVVCDDQSTDRTMDIVREFADDYPSIRWMIIRNEVRLGVRRNFEKAIALAEGDYIAPSDQDDIWERNKLEILLHIMREKKVSLVHSNIRYVDVKGREMTERLDFPCSVPLATYLYGLNNVMGCTCLFCASLKDILFPFPIHYYYHDQWLAIMAYHNGGIYLCDHKLVRYRQHADNVVSAICGGGKREGEELGLSYFVGKAEDIYLLLHRRKQIKYSQKDWWRLAWLYVSNRLGLAWLKFKLL | not soluble
2 | MPGKRRFRRSPVKYDFFTRLLQTGFLSTDSLLYPESQFHICTQLSSQDAYADNLEHHHHHH | not soluble
3 | MALLHGGQLQQVAKQYNIPPSDWIDVSTGIAPISYPIPIIPLSVWQQLPQQNPDLIAAAQQYYQCSQLMITNGSQAIIKALPALYRQKNAESQDVYLPERGYKEHAHAWKNAGYNLHFYQEFLPEMSEILPNSVLVIINPNNPTGQFFNGQVIAQYQERLKLINGLLVLDEAFIDVVPGNQSYYNQLENSHSLVLRSFGKFFGLAGIRIGFLVANGYWCGAFKELLGPWQINGPAQLIAQHALQDTSWQTRQKDTLTRLRIAQEHMLRQAFPQIILREINGCNLFLTLSFHQQDTAKKLYHLLCQQGVYCRLADEQDTLRFGITTEELLERLTLACRQAYQQLT | not soluble
4 | MAAIGVHLGCTSACVAVYKDGRAGVVANDAGDRVTPAVVAYSENEEIVGLAAKQSRIRNISNTVMKVKQILGRSSSDPQAQKYIAESKCLVIEKNGKLRYEIDTGEETKFVNPEDVARLIFSKMKETAHSVLGSDANDVVITVPFDFGEKQKNALGEAARAAGFNVLRLIHEPSAALLAYGIGQDSPTGKSNILVFKLGGTSLSLSVMEVNSGIYRVLSTNTDDNIGGAHFTETLAQYLASEFQRSFKHDVRGNARAMMKLTNSAEVAKHSLSTLGSANCFLDSLYEGQDFDCNVSRARFELLCSPLFNKCIEAIRGLLDQNGFTADDINKVVLCGGSSRIPKLQQLIKDLFPAVELLNSIPPDEVIPIGAAIEAGILIGKENLLVEDSLMIECSARDILVKGVDESGASRFTVLFPSGTPLPARRQHTLQAPGSISSVCLELYESDGKNSAKEETKFAQVVLQDLDKKENGLRDILAVLTMKRDGSLHVTCTDQETGKCEAISIEIAS | not soluble
5 | MGSDKIHHHHHHMISEYEDIGLHNTCSEDGSFDVVLDSITNIAKYGMGIIAGVFIDMYSIIGNTDSKTIYTVRKGTLADYNARIIARSISGQVINTDPDTVVKMAEEGHMGLVGNEVQVGISYAEFAERLGIYAASCLIAARDQSFRSVLDQYQKGIEFIARNPEVSAEIISRKSNYYDEKTMKRIIGIYRHRLTTLRSDLERSISVYSAVEPSVYRLKILG | not soluble
6 | MGSDKIHHHHHHMIHVGTCGFCEKQDKYFQDFSTVEIQQTFYKILQESTLKKWREKAPEGFVFSIKAFQGVTHPPNSPTWRRSNVKPSKNVGLLRPTNEVIHYWKITLNEAKILNARFILIQLPRSFKESEESFSNAERFFSIIDRGEFEIAVELRGWSERGIKKFVREFDVIDVVDPMVRVPLHGGGVNYYRLHGKYENGRIIYSYKYSDEELLKIRERVLSFHVEESYVYFNNSNMCEDAQRFKQLIMKF | not soluble
7 | MGSDKIHHHHHHMIRNCFLCAAKTDNVFSSTWMLPGLAPTEIGFSICPKCGSVCQSPSVSYDDMMTIYSSIAVYTNPGRQGLPSSAKIRDLDEQIQFIKRGIGHLPKSAMQIGSSDGYTLSRFRQAGVELVMGVEPGSTSIEIAKRLYNIDCIHGTAEDFETDKDFELILLTHVLEHIYEPQVTLDKCRKIQNTPGEKFIYVEVPLMATAASLCPGFLTFEHVNYYTKENLICSLTQAGYWPVSVVEHFNSNLSPIIGILASTREQHHYDVMKMDVQLNRKRLSEYRQKELSYWQNCVDCIKVSLQQSQRIFLWGAGIHTCQLLANTDLLDHSRIFGLTDTSSLKWGLRQGEWICQDPQQIDWQVGDTVLISSYASEKEIFDALYWLRDKGVNTLRLHNVDDTRAIV | not soluble
8 | MTLYSFRLGLLLFCSLLFGCTAPTPAPVSGLGKDYNKVERGSYRGSYYEVKKGDTLYFIAYLTDKDVNDLISYNDLAPPYTIHPGQKIKLWLPNYTPPAYGGTGGAATVAVASSTSASVAKAATTATVAQTVSKSSNTKNVQNGSTNSQNLTKKDPVKTVDQTKTKEYVEPVGKQNVNVNVAKAKPSDEKIAKWLWPTKGRVIKNFSAGDQGNKGIDIAGQRGQAVVATADGTVVYSGNALRGYGNLIIIKHNEHYLSAYAHNDQLLAKEGQTVQAGQKIATMGSSGTNSVRLHFEIRYQGKSVNPKRYLP | not soluble
9 | MAHHHHHHMSITSRFIGGVKHLLKGGSMKYLAAGEPYCPFGEAFGLTILPEYILEDDASNLRKGYVDVYTRASDRIILNDGRFQLPPLPPASFMPLLERLEQDNVVPKSWLNNQTANLYEPGDFIRAHIDNLFVYDDIFAICSLGSNCLLRFVHVQNGEELDVMVPDRSVYIMSGPARYVYFHMVLPVEAQRFSLVFRRSIMESDGGF | not soluble
10 | MPRPSAGSHHNDKLHFKKGDTVIVLSGKHKGQTGKVLLALPRDQKVVVEGVNVITKNVKPSMTNPQGGQEQRELALHASKVALVDPETGKATRVRKQIVDGKKVRVAVASGKTID | soluble
11 | MQVRIERAERIESELEEHVGDQTFVEESRFLEEDEQREGEILDQIIFVDGKRRSFVRITTDEGITGIFAELCVGAVIWDREGGTKTLFSPDKPPVKERVLGFSQSFQEEGYEEVGGILFKVVKEGKDAMQSIDLYMRSLEIEEVRKHMDKNILIVKDGPAARELPFEENVGPIGLVKNIGVTELSKEDFKKLRFLKKGKRSKMFVSSRETPLKKVGAYVKLIDGEGIRGLVRLETYVKDDNQIPYIRKVFDDLAKTLPHLTADLPIPRLPENILPIQFLEENLSYYLTDKNYMNTRLFAYIGR | not soluble
12 | MESILITGASGFIGSFIVEEALKRKFGVWAGIRPTSSKKYLKNRKIHFLELDFAHPNELRAQLSGHKGTYNKFDYIIHCAGVTKCPDKNTFDYVNYLQTKYFIDTLKALNMVPKQFIYISTLSVFGPVREKDYSPIEAGDVPMPNTAYGLSKLKAELYIQSIPGFPYVIYRPTGVYGPRELDYFLMAKSIRQHVDFSVGFRRQDLTFVYVKDIVQAIFLGIEKKVTRRAYFLTDGKVYNSRVFSDLIQKELGNPFVIHVKCPLIVLKVISLLAEFIATRSGKSSTLNSDKYKIMKQRNWQCDITPAINELGYAPEYDLEKGVRETIDWYKNEGWL | not soluble
13 | MSKPGQTILVALRKMIASGELAAGERLMEVPTAELFGVSRMPVRMAFRTLEQEGLLVPFGGRGFQVRSISPQEIAGAVDVRGVLEGLAARQMAERGLTQDARDALEACLVQGDALFDKGYVTEDDLEVYHDMNMRLHQVIVAGSGNRAIADALARNDHLPFASVTALAVDRHNLIREYRRFNFAHMQHHAVVDALINGQGARAEALMREHANATLRYADIFGAGVHERMKVIQRPD | not soluble
14 | SDRWEVPVNPSNVRSASSHQTVSASDRASDKVDERPATFSHFQLARCGEDYTLSMVSLAAYQAERRHRGNLIKDRSQSALPWVQVYHSETGLDYSFQIDRTTTVKVAGFNYNVPNDGETRHLYSAGTSQVNMPVITDNMSACIAVACAAENVDAGTGERRPGAKVRVFHLLPFRREDLMPEQVLASVRDYLRDIKEQGLTMRVALHGGNREGDFSVSTAEALKSLFADEGIPIEFDETCANRTSETLLGAVILNDNSTQFIKH | not soluble
15 | MAHHHHHHMTENFLIFGLPFLPQCNDTLPSSQFKCLVAEMGPLGQALRPFVVPTLKVGTLDSLIEASDELAKLDPQLENNVEKLIALMEETSQKPRSVVSALRINQTQEMTPAAYIKNFLWSSAQFDTREKIQSLIEKLSQISASIEERIRVLLSEYNETRNRLTAVNRKTQGNLSVKPIRELVASYNQKFQCFVDTEMLVTLFVVVPLASQKEWLETYWSLNEFVCPQSNRVIAEDKECVLNSIVTFRKAMDDVKMICRKKRFTVRDIDGVDDLSVAEVKELNQKAEKERKALYTVLWQQYSLCYVAWVHVKALRVFVESLLKYGLPPRCISVVLQVDGKKEAEIRKKILQIYPNLISPLTNEPPTDTGMLQYEYPYVSLKVTNFQKD | not soluble
